B1: SeqID No 520 peptide (KIQEMQHFL) (peptide)
peptide: KIQEMQHFL
notes: Synthetic peptide
B2: FALPGLLHA (SEQ ID NO: 91) (peptide)
peptide: FALPGLLHA
B3: NLRDLLSEV (SEQ ID NO: 92) (peptide)
peptide: NLRDLLSEV
B4: FIISDWRFVL (SEQ ID NO: 101) (peptide)
peptide: FIISDWRFVL
B5: DDX5-001 (YLLPAIVHI from DDX5) (peptide)
peptide: YLLPAIVHI
notes: Negative control peptide for T cell stimulations (still a pMHC complex with A*02:01); also called 533
B6: SeqID No 504 peptide (VYEKNGYIYF) (peptide)
peptide: VYEKNGYIYF
notes: Synthetic peptide
B7: STIRGELFFF (SEQ ID NO: 12) (peptide)
peptide: STIRGELFFF
B8: ILKEDPFLF (SEQ ID NO: 19) (peptide)
peptide: ILKEDPFLF
B9: LIFMLANVF (SEQ ID NO: 39) (peptide)
peptide: LIFMLANVF
B10: IQMDEPMAF (SEQ ID NO: 43) (peptide)
peptide: IQMDEPMAF
B11: AYTLLGHEFV (SEQ ID NO: 77) (peptide)
peptide: AYTLLGHEFV
B12: FNKRKPLSL (SEQ ID NO: 298) (peptide)
peptide: FNKRKPLSL
B13: VASPKHCVL (SEQ ID NO: 300) (peptide)
peptide: VASPKHCVL
B14: HLLQKQTSI (SEQ ID NO: 302) (peptide)
peptide: HLLQKQTSI
B15: DAIQRKYSC (SEQ ID NO: 309) (peptide)
peptide: DAIQRKYSC
B16: VIKEKALTL (SEQ ID NO: 316) (peptide)
peptide: VIKEKALTL

How the values were obtained:
[1] = target: HLA-A*02:01 (human); assay: preformed pMHC complex on aAPC beads and as fluorescent multimer, in vitro CD8+ T cell priming
Experimental: (§1) Viable singlet cells were gated for CD8+ lymphocytes. Boolean gates helped excluding false-positive events detected with multimers specific for different peptides.
(§2) 800.000 beads/200 μl were coated in 96-well plates in the presence of 4×12.5 ng different biotin-pMHC, washed and 600 ng biotin anti-CD28 were added subsequently in a volume of 200 μl. […] Half of the medium was then exchanged by fresh TCM supplemented with 80 U/ml IL-2 and incubating was continued for 4 days at 37° C. This stimulation cycle was performed for a total of three times. For the pMHC multimer readout using 8 different pMHC molecules per condition, a two-dimensional combinatorial coding approach was used as previously described (Andersen et al., 2012) with minor modifications encompassing coupling to 5 different fluorochromes. Finally, multimeric analyses were performed by staining the cells with Live/dead near IR dye (Invitrogen, Karlsruhe, Germany), CD8-FITC antibody clone SK1 (BD, Heidelberg, Germany) and fluorescent pMHC multimers. For analysis, a BD LSRII SORP cytometer equipped with appropriate lasers and filters was used. Peptide specific cells were calculated as percentage of total CD8+ cells. Evaluation of multimeric analysis was done using the FlowJo software (Tree Star, Oregon, USA). In vitro priming of specific multimer+CD8+ lymphocytes was detected by comparing to negative control stimulations.

[2] = target: T1, HLA-A*02 (human); assay: UV peptide-exchange ELISA; +++ = yield >50%
T1 construct: MHC monomer made peptide-receptive by UV cleavage of a UV-sensitive ligand; also called peptide-receptive MHC class I monomer

[3] = target: HLA-A*02:01 (human); assay: preformed control pMHC complex for aAPC stimulation
Experimental: as §2

[4] = target: HLA-A*24:02 (human); assay: preformed pMHC complex on aAPC beads and as fluorescent multimer, in vitro CD8+ T cell priming
Experimental: as §1, §2

[5] = target: T2, HLA-A*24 (human); assay: UV peptide-exchange ELISA; + = yield >10%
T2 construct: MHC monomer made peptide-receptive by UV cleavage of a UV-sensitive ligand; also called peptide-receptive MHC class I monomer
Excerpt: Candidate peptides for T cell based therapies according to the present invention were further tested for their MHC binding capacity (affinity). The individual peptide-MHC complexes were produced by UV-ligand exchange, where a UV-sensitive peptide is cleaved upon UV-irradiation, and exchanged with the peptide of interest as analyzed. Only peptide candidates that can effectively bind and stabilize the peptide-receptive MHC molecules prevent dissociation of the MHC complexes. To determine the yield of the exchange reaction, an ELISA was performed based on the detection of the light chain (β2m) of stabilized MHC complexes. The assay was performed as generally described in Rodenko et al. (Rodenko et al., 2006).
96 well MAXISorp plates (NUNC) were coated over night with 2 ug/ml streptavidin in PBS at room temperature, washed 4× and blocked for 1 h at 37° C. in 2% BSA containing blocking buffer. […] Peptide-MHC monomers of the UV-exchange reaction were diluted 100-fold in blocking buffer. Samples were incubated for 1 h at 37° C., washed four times, incubated with 2 ug/ml HRP conjugated anti-β2m for 1h at 37° C., washed again and detected with TMB solution that is stopped with […]. Absorption was measured at 450 nm.

[6] = target: T3, HLA-B*08 (human); assay: UV peptide-exchange ELISA; +++ = yield >50%
T3 construct: MHC monomer made peptide-receptive by UV cleavage of a UV-sensitive ligand; also called peptide-receptive MHC class I monomer

Row | peptide exchange yield [5] [%] | peptide exchange yield [6] [%] | also measured | Binder
1 | – | – | binding result [1]: binds | B1
2 | – | – | peptide exchange yield [2]: 50 to 75% | B2
3 | – | – | peptide exchange yield [2]: 50 to 75% | B3
4 | – | – | peptide exchange yield [2]: 50 to 75% | B4
5 | – | – | binding result [3]: binds | B5
6 | – | – | binding result [4]: binds | B6
7 | 10 to 20 | – | – | B7
8 | 10 to 20 | – | – | B8
9 | 10 to 20 | – | – | B9
10 | 10 to 20 | – | – | B10
11 | 10 to 20 | – | – | B11
12 | – | 50 to 75 | – | B12
13 | – | 50 to 75 | – | B13
14 | – | 50 to 75 | – | B14
15 | – | 50 to 75 | – | B15
16 | – | 50 to 75 | – | B16

From US11352401
